Test results from patent US20250295799A1 (Zymeworks, published 2025).
Each block holds one binder with its values, some of them ahead of it.

Tests used:
human glypican-3 (GPC3) [1] = target: T1, human glypican-3 (GPC3) (human, UniProt P51654 25-554); assay: flow cytometry on JHH-7 cells (GPC3-high);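 also: antibody binding at 4 °C for 24 h, detected with anti-human AF647 secondary, geometric mean fluorescence of live cells versus antibody concentration, fitted as specific binding with Hill slope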
T1 construct: Endogenous on JHH-7, JHH-5, HepG2 and NCI-H446 tumour cells, or transiently expressed on CHO-S cells from a pTT5 plasmid; also called hGPC3; huGPC3
Procedure: (§1) Briefly, cells were seeded at 50,000 cells/well in V-bottom 96-well plates and treated with antibody for 24 hours at 4° C. to prevent internalization. […] Following incubation and washing, fluorescence was detected by flow cytometry on a BD LSRFortessa™ Cell Analyzer (BD Biosciences, Franklin Lake, NJ) with 1,000 minimum events collected per well. AF647/APC-A GeoMean (fluorescence signal geometric mean, proportional to anti-Human AF647 binding) in live cell population was plotted against antibody concentration using GraphPad Prism Version 9 (GraphPad Software, San Diego, CA). The Bmax, Curve Hill Slope (h) and Kd values were derived from the “Specific binding with Hill slope” nonlinear regression curve fit in GraphPad Prism Version 9.

[2] = target: T2, cynomolgus monkey glypican-3 (GPC3) (cynomolgus monkey, UniProt A5A6P7 25-554 (Pan troglodytes entry)); assay: flow cytometry on CHO-S cells transfected with cynomolgus GPC3;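 also: antibodies incubated 24 h at 4 °C with transiently transfected cells, binding read as AF647 geometric mean fluorescence of live cells, GFP-transfected cells as negative control, Hill-slope specific-binding fit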
T2 construct: Transiently expressed on CHO-S cells; also called cynoGPC3; CynoGPC3-CHO
Procedure: Briefly, CHO—S cells were transiently transfected for −24 hours with a pTT5-based expression plasmid encoding human GPC3 or cynomolgus monkey GPC3, 0.5 μg DNA per 1 million cells, using the Neon™ Transfection System (Thermo Fisher Scientific Corp., Waltham, MA), to transiently express human or cynomolgus monkey GPC3. Cells transfected with GFP were used as negative transfection controls. Following transfection, cells were seeded at 50,000 cells/well in V-bottom 96-well plates and treated with antibody for 24 hours at 4° C. to prevent internalization. […] Following incubation and washing, fluorescence was detected by flow cytometry on a BD LSRFortessa™ Cell Analyzer (BD Biosciences, Franklin Lake, NJ) with 1,000 minimum events collected per well. AF647/APC-A GeoMean (fluorescence signal geometric mean, proportional to anti-Human AF647 binding) in live cell population was plotted against antibody concentration using GraphPad Prism Version 9 (GraphPad Software, San Diego, CA). The Bmax and Kd values were derived from the “Specific binding with Hill slope” nonlinear regression curve fit in GraphPad Prism Version 9.

human glypican-3 (GPC3) [3] = target: T1, human glypican-3 (GPC3); assay: flow cytometry on CHO-S cells transfected with human GPC3;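 also: antibody binding to transiently transfected CHO-S cells after 24 hours at 4 °C, read as geometric mean fluorescence of anti-human AF647 in live cells, fitted against antibody concentration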
human glypican-3 (GPC3) [4] = target: T1, human glypican-3 (GPC3); assay: flow cytometry on JHH-5 cells (GPC3-mid);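 also: antibody binding to cells at 4 °C for 24 h, detected with anti-human AF647 as geometric mean fluorescence of live cells versus antibody concentration, fitted by specific binding with Hill slope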
Procedure: as §1

human glypican-3 (GPC3) [5] = target: T1, human glypican-3 (GPC3); assay: cell-based or functional assay
[6] = target: T3, recombinant cynomolgus GPC3 (glypican-3) (cynomolgus monkey, UniProt A0A2K5VK50 24-558); assay: SPR (Biacore T200), antibody captured by anti-Fc, GPC3 injected, single-cycle kinetics, 1:1 fit; average
T3 construct: also called cynoGPC3
Procedure: (§2) CM5 Series S sensor chip, Biacore™ amine coupling kit (NHS, EDC and 1 M ethanolamine), and 10 mM sodium acetate buffers were purchased from Cytiva Life Sciences (Mississauga, ON, Canada). PBS running buffer with 0.05% Tween20 (PBST) was purchased from Teknova Inc. (Hollister, CA). Antigens: recombinant human and cynomolgus GPC3 was purchased from ACROBiosystems (Newark, DE) and SEC purified on a Superdex 200 10/300 GL column (Cytiva) in PBST running buffer at 0.8 mL/min.
(§3) Screening of the antibodies for binding to GPC3 antigen was conducted via anti-Fc capture of antibodies, followed by the injection of five concentrations of GPC3. The anti-Fc surface was prepared on a CM5 Series S sensor chip by standard amine coupling methods as described by the manufacturer (Cytiva Life Sciences, Mississauga, ON, Canada). […] Approximately 150-400 RUs of each antibody (5-20 μg/mL) were captured on the goat anti-human IgG surface by injecting at 10 μL/min for 60s. Using single-cycle kinetics, five concentrations of a two-fold dilution series of human or cynomolgus GPC3 starting at 40 nM, 20 nM, 10 nM, or 5 nM depending on the antibody, with a blank buffer control were injected at 20 μL/min for 180s of contact time, followed by 180 s dissociation phase, resulting in sensorgrams with a buffer blank reference. The anti-Fc surface was regenerated to prepare for the next injection cycle by one pulse of 10 mM glycine/HCl pH 1.5 for 120 s at 40 μL/min. Blank-subtracted sensorgrams were analyzed and fit to the 1:1 Langmuir binding model using Biacore™ T200 Evaluation Software v3.2.

[7] = target: T4, recombinant human GPC3 (glypican-3) (human, UniProt P51654 25-559); assay: as above
T4 construct: also called huGPC3; hGPC3
Procedure: as §2, §3

[8] = target: T4, recombinant human GPC3 (glypican-3); assay: SPR (Biacore T200), antibody captured by anti-Fc, GPC3 injected
Procedure: as §2, §3
For JHH-5 Internalization (MFI) in this document: test concentration or dose not given here.
For JHH-7 Internalization (MFI) in this document: test concentration or dose not given here.

B3: H18L6_LC_N33D mAb, v40222 (antibody, human IgG1, kappa, V domains shown)
VH: QVQLVQSGAEVKKPGSSVKVSCKASGYTFTDYEMHWVKQAPGHGLEWIGAIDPETGDTAYNQKFKGKATLTADTSTSTAYMELSSLRSEDTAVYYCTRYFSFAYWGQGTLVTVSS
VL: EIVLTQSPATLSLSPGERATISCRSSQSLRHSDGNTYLQWYQQKPGQAPRLLIYKVSNRFSGVPARFSGSGSGTDFTLTISSLEPEDFAVYFCYQSKHVPYTFGGGTKVEIKR
notes: M3-H18L6 chains with the stated light chain point mutation, IgG1/kappa
- Kd (human glypican-3 (GPC3) [1]): > 47 nM

B6: H18L6_LC_N33V mAb, v40215 (antibody, human IgG1, kappa, V domains shown)
VH: QVQLVQSGAEVKKPGSSVKVSCKASGYTFTDYEMHWVKQAPGHGLEWIGAIDPETGDTAYNQKFKGKATLTADTSTSTAYMELSSLRSEDTAVYYCTRYFSFAYWGQGTLVTVSS
VL: EIVLTQSPATLSLSPGERATISCRSSQSLRHSVGNTYLQWYQQKPGQAPRLLIYKVSNRFSGVPARFSGSGSGTDFTLTISSLEPEDFAVYFCYQSKHVPYTFGGGTKVEIKR
notes: as for B3
- Bmax (MFI) (human glypican-3 (GPC3) [1]): 9540 MFI
- Kd (human glypican-3 (GPC3) [1]): 1.01 nM

B7: H18L6_LC_N33E mAb, v40213 (antibody, human IgG1, kappa, V domains shown)
VH: QVQLVQSGAEVKKPGSSVKVSCKASGYTFTDYEMHWVKQAPGHGLEWIGAIDPETGDTAYNQKFKGKATLTADTSTSTAYMELSSLRSEDTAVYYCTRYFSFAYWGQGTLVTVSS
VL: EIVLTQSPATLSLSPGERATISCRSSQSLRHSEGNTYLQWYQQKPGQAPRLLIYKVSNRFSGVPARFSGSGSGTDFTLTISSLEPEDFAVYFCYQSKHVPYTFGGGTKVEIKR
notes: as for B3
- Bmax (MFI) [2]: 2320 MFI
- Kd [2]: 0.22 nM
- Bmax (MFI) (human glypican-3 (GPC3) [3]): 1860 MFI
- Kd (human glypican-3 (GPC3) [3]): 0.25 nM
- Bmax (MFI) (human glypican-3 (GPC3) [4]): 1940 MFI
- Kd (human glypican-3 (GPC3) [4]): 3.39 nM
- JHH-5 Internalization (MFI) (human glypican-3 (GPC3) [5]): 1200 MFI
- JHH-7 Internalization (MFI) (human glypican-3 (GPC3) [5]): 1220 MFI

B8: v38592, M3-H18L6 (WT) mAb (antibody, human IgG1, kappa)
heavy: not shown
light: EIVLTQSPATLSLSPGERATISCRSSQSLRHSNGNTYLQWYQQKPGQAPRLLIYKVSNRFSGVPARFSGSGSGTDFTLTISSLEPEDFAVYFCYQSKHVPYTFGGGTKVEIKRTVAAPSVFIFPPSDEQLKSGTASVVCLLNNFYPREAKVQWKVDNALQSGNSQESVTEQDSKDSTYSLSSTLTLSKADYEKHKVYACEVTHQGLSSPVTKSFNRGEC
notes: Same as v37574 but the heavy chain cDNA encodes a C-terminal lysine; also called wild-type M3-H18L6
- Kd [6]: 4.54 nM
- Kd [7]: 7.14 nM
- Avg % binding huGPC3 (RU observed/theoretical) [8]: 51.9%

Further lines, results first:

- Bmax (MFI) (human glypican-3 (GPC3) [1]): 7220 MFI
- Kd (human glypican-3 (GPC3) [1]): 0.79 nM
B1: H18L6_LC_N33S mAb, v40221 (antibody, human IgG1, kappa, V domains shown)
VH: QVQLVQSGAEVKKPGSSVKVSCKASGYTFTDYEMHWVKQAPGHGLEWIGAIDPETGDTAYNQKFKGKATLTADTSTSTAYMELSSLRSEDTAVYYCTRYFSFAYWGQGTLVTVSS
VL: EIVLTQSPATLSLSPGERATISCRSSQSLRHSSGNTYLQWYQQKPGQAPRLLIYKVSNRFSGVPARFSGSGSGTDFTLTISSLEPEDFAVYFCYQSKHVPYTFGGGTKVEIKR
notes: as for B3

- Bmax (MFI) [2]: 2970 MFI
- Kd [2]: 0.09 nM
- Bmax (MFI) (human glypican-3 (GPC3) [3]): 2360 MFI
- Kd (human glypican-3 (GPC3) [3]): 0.06 nM
- Bmax (MFI) (human glypican-3 (GPC3) [4]): 4140 MFI
- Kd (human glypican-3 (GPC3) [4]): 0.1 nM
- JHH-5 Internalization (MFI) (human glypican-3 (GPC3) [5]): 8950 MFI
- JHH-7 Internalization (MFI) (human glypican-3 (GPC3) [5]): 8900 MFI
- Bmax (MFI) (human glypican-3 (GPC3) [1]): 10600 MFI
- Kd (human glypican-3 (GPC3) [1]): 0.42 nM
B2: H18L6_LC_G34S mAb, v40210 (antibody, human IgG1, kappa, V domains shown)
VH: QVQLVQSGAEVKKPGSSVKVSCKASGYTFTDYEMHWVKQAPGHGLEWIGAIDPETGDTAYNQKFKGKATLTADTSTSTAYMELSSLRSEDTAVYYCTRYFSFAYWGQGTLVTVSS
VL: EIVLTQSPATLSLSPGERATISCRSSQSLRHSNSNTYLQWYQQKPGQAPRLLIYKVSNRFSGVPARFSGSGSGTDFTLTISSLEPEDFAVYFCYQSKHVPYTFGGGTKVEIKR
notes: as for B3

- Bmax (MFI) (human glypican-3 (GPC3) [1]): 7220 MFI
- Kd (human glypican-3 (GPC3) [1]): 0.67 nM
B4: H18L6_LC_N33Q mAb, v40220 (antibody, human IgG1, kappa, V domains shown)
VH: QVQLVQSGAEVKKPGSSVKVSCKASGYTFTDYEMHWVKQAPGHGLEWIGAIDPETGDTAYNQKFKGKATLTADTSTSTAYMELSSLRSEDTAVYYCTRYFSFAYWGQGTLVTVSS
VL: EIVLTQSPATLSLSPGERATISCRSSQSLRHSQGNTYLQWYQQKPGQAPRLLIYKVSNRFSGVPARFSGSGSGTDFTLTISSLEPEDFAVYFCYQSKHVPYTFGGGTKVEIKR
notes: as for B3

- Bmax (MFI) [2]: 2640 MFI
- Kd [2]: 0.17 nM
- Bmax (MFI) (human glypican-3 (GPC3) [3]): 2100 MFI
- Kd (human glypican-3 (GPC3) [3]): 0.11 nM
- Bmax (MFI) (human glypican-3 (GPC3) [4]): 2940 MFI
- Kd (human glypican-3 (GPC3) [4]): 0.24 nM
- JHH-5 Internalization (MFI) (human glypican-3 (GPC3) [5]): 3560 MFI
- JHH-7 Internalization (MFI) (human glypican-3 (GPC3) [5]): 3330 MFI
- Bmax (MFI) (human glypican-3 (GPC3) [1]): 7420 MFI
- Kd (human glypican-3 (GPC3) [1]): 0.4 nM
B5: H18L6_LC_G34V mAb, v40211 (antibody, human IgG1, kappa, V domains shown)
VH: QVQLVQSGAEVKKPGSSVKVSCKASGYTFTDYEMHWVKQAPGHGLEWIGAIDPETGDTAYNQKFKGKATLTADTSTSTAYMELSSLRSEDTAVYYCTRYFSFAYWGQGTLVTVSS
VL: EIVLTQSPATLSLSPGERATISCRSSQSLRHSNVNTYLQWYQQKPGQAPRLLIYKVSNRFSGVPARFSGSGSGTDFTLTISSLEPEDFAVYFCYQSKHVPYTFGGGTKVEIKR
notes: as for B3
